Data taken from patent US20230227548A1 (published 2023).
Where a chain is given by its changes, count along the chain named. In names and notes the source's numbering stands.

B1: GC5B471 (antibody, V domains shown)
VH: EVQLVQSGAEVKKPGESLKISCKGSGYSFTSYYIGWVRQMPGKGLEWMGIIYPGASDTRYSPSFQGQVTISADKSISTAYLQWSSLKASDTAMYYCARVYSFGGRHKALFDYWGQGTLVTVSS
VL: EIVLTQSPATLSLSPGERATLSCRASQSVSSYLAWYQQKPGQAPRLLIYDASNRATGIPARFSGSGSGTDFTLTISSLEPEDFAVYYCQQRSNWPLTFGQGTKVEIK
notes: GC5B164 PTM variant, Hc GC5H278
B2: GC5B472 (antibody, V domains shown)
VH: B1 VH with Y33V
VL: B1 VL
notes: GC5B164 PTM variant, Hc GC5H277
B3: GC5B473 (antibody, V domains shown)
VH: B1 VH with Y33F
VL: B1 VL
notes: GC5B164 PTM variant, Hc GC5H276
B4: GC5B474 (antibody, V domains shown)
VH: B1 VH with Y33G
VL: B1 VL
notes: GC5B164 PTM variant, Hc GC5H275
B5: GC5B475 (antibody, V domains shown)
VH: B1 VH with Y33A
VL: B1 VL
notes: GC5B164 PTM variant, Hc GC5H274
B6: GC5B476 (antibody, V domains shown)
VH: B1 VH with A55S
VL: B1 VL
notes: GC5B164 PTM variant, Hc GC5H273
B7: GC5B477 (antibody, V domains shown)
VH: B1 VH with Y33V, A55S
VL: B1 VL
notes: GC5B164 PTM variant, Hc GC5H272
B8: GC5B478 (antibody, V domains shown)
VH: B1 VH with Y33F, A55S
VL: B1 VL
notes: GC5B164 PTM variant, Hc GC5H271
B9: GC5B479 (antibody, V domains shown)
VH: B1 VH with Y33G, A55S
VL: B1 VL
notes: GC5B164 PTM variant, Hc GC5H270
B10: GC5B480 (antibody, V domains shown)
VH: B1 VH with Y33A, A55S
VL: B1 VL
notes: GC5B164 PTM variant, Hc GC5H269
B11: GC5B481 (antibody, V domains shown)
VH: B1 VH with A55K
VL: B1 VL
notes: GC5B164 PTM variant, Hc GC5H268
B12: GC5B482 (antibody, V domains shown)
VH: B1 VH with Y33V, A55K
VL: B1 VL
notes: GC5B164 PTM variant, Hc GC5H267
B13: GC5B483 (antibody, IgG4, V domains shown)
VH: B1 VH with Y33F, A55K
VL: B1 VL
notes: GC5B164 variant D55K, W33F; IgG4 S228P, L234A, L235A; also called GC5H266
B14: GC5B484 (antibody, V domains shown)
VH: B1 VH with Y33G, A55K
VL: B1 VL
notes: GC5B164 PTM variant, Hc GC5H265
B15: GC5B485 (antibody, V domains shown)
VH: B1 VH with Y33A, A55K
VL: B1 VL
notes: GC5B164 PTM variant, Hc GC5H264
B16: GC5B486 (antibody, V domains shown)
VH: B1 VH with A55E
VL: B1 VL
notes: GC5B164 PTM variant, Hc GC5H263
B17: GC5B487 (antibody, V domains shown)
VH: B1 VH with Y33V, A55E
VL: B1 VL
notes: GC5B164 PTM variant, Hc GC5H262
B18: GC5B488 (antibody, V domains shown)
VH: B1 VH with Y33F, A55E
VL: B1 VL
notes: GC5B164 PTM variant, Hc GC5H261
B19: GC5B490 (antibody, V domains shown)
VH: B1 VH with Y33A, A55E
VL: B1 VL
notes: GC5B164 PTM variant, Hc GC5H259
B20: GC5B491 (antibody, V domains shown)
VH: B1 VH with A55Y
VL: B1 VL
notes: GC5B164 PTM variant, Hc GC5H258
B21: GC5B492 (antibody, V domains shown)
VH: B1 VH with Y33V, A55Y
VL: B1 VL
notes: GC5B164 PTM variant, Hc GC5H257
B22: GC5B493 (antibody, V domains shown)
VH: B1 VH with Y33F, A55Y
VL: B1 VL
notes: GC5B164 PTM variant, Hc GC5H256
B23: GC5B494 (antibody, V domains shown)
VH: B1 VH with Y33G, A55Y
VL: B1 VL
notes: GC5B164 PTM variant, Hc GC5H255
B24: GC5B495 (antibody, V domains shown)
VH: B1 VH with Y33A, A55Y
VL: B1 VL
notes: GC5B164 PTM variant, Hc GC5H254
B25: GC5B496 (antibody, V domains shown)
VH: B1 VH with A55D
VL: B1 VL
notes: GC5B164 PTM variant, Hc GC5H253
B26: GC5B497 (antibody, V domains shown)
VH: B1 VH with Y33V, A55D
VL: B1 VL
notes: GC5B164 PTM variant, Hc GC5H252
B27: GC5B498 (antibody, V domains shown)
VH: B1 VH with Y33F, A55D
VL: B1 VL
notes: GC5B164 PTM variant, Hc GC5H251
B28: GC5B501 (antibody, V domains shown)
VH: B1 VH with Y33W
VL: B1 VL
notes: GC5B164 PTM variant, Hc GC5H248
B29: GC5B502 (antibody, V domains shown)
VH: B1 VH with Y33W, A55S
VL: B1 VL
notes: GC5B164 PTM variant, Hc GC5H247
B30: GC5B503 (antibody, V domains shown)
VH: B1 VH with Y33W, A55K
VL: B1 VL
notes: GC5B164 PTM variant, Hc GC5H246
B31: GC5B504 (antibody, V domains shown)
VH: B1 VH with Y33W, A55E
VL: B1 VL
notes: GC5B164 PTM variant, Hc GC5H245
B32: GC5B505 (antibody, V domains shown)
VH: B1 VH with Y33W, A55Y
VL: B1 VL
notes: GC5B164 PTM variant, Hc GC5H244

Molecular target: T1, human GPRC5D (human, UniProt Q9NZD1 1-345)
T1 construct: on transfected HEK293 or RBL cells, or endogenous on MM1R, H929, OPM2, LP-1, JIM3 and patient plasma cells; also called G-protein coupled receptor family C group 5 member D; hGPRC5D
T1 sequence (Q9NZD1 whole entry): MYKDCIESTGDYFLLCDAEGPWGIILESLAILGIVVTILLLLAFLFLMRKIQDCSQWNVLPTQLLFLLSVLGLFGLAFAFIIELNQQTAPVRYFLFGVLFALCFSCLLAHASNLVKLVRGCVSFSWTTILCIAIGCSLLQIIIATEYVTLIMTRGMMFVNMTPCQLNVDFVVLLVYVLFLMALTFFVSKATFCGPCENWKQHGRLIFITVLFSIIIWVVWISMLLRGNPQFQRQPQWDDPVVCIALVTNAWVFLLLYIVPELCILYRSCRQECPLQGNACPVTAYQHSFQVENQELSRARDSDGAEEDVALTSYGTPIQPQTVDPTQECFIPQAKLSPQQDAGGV
Assay: FACS, human GPRC5D cells

binding result	Binder
binds	B1
binds	B2
binds	B3
binds	B4
binds	B5
binds	B6
binds	B7
binds	B8
binds	B9
binds	B10
binds	B11
binds	B12
binds	B13
binds	B14
binds	B15
binds	B16

binding result	Binder
binds	B17
binds	B18
binds	B19
binds	B20
binds	B21
binds	B22
binds	B23
binds	B24
binds	B25
binds	B26
binds	B27
binds	B28
binds	B29
binds	B30
binds	B31
binds	B32
